According to patent US20240327505A1 (published 2024):
Changes are numbered by the printed parent chain.

B1: AB-009747 (antibody, V domains shown)
VH: QVQLVESGGGVVQPGGSLRLSCAASGFTFSNYGMHWVRQAPGKGLEWVAFIRYDGSNEYYADSVKGRFTISRDNSKNTLYLHMNSLRPEDTAVYYCAKQGLLSNYYYGMDVWGQGTTVTVSS
VL: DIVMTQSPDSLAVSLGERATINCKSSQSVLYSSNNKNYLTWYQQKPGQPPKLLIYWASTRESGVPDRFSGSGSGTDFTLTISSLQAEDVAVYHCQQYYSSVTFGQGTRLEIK
B2: AB-009610 (antibody, V domains shown)
VH: QVQLVQSGAEVKKPGSSVKVSCKASGGTFSNYAISWVRQAPGQGLEWMGRIIPILGIANYAQKFQGRVTITADKSTSTAYMELSSLRSEDTAVYYCATTPYYYDSSGYYLDYWGQGTLVTVSS
VL: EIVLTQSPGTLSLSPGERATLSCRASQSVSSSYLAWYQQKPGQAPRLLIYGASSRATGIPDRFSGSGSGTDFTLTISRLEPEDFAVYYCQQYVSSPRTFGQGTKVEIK
B3: AB-009281 (antibody, V domains shown)
VH: EVQLVETGGGLIQPGGSLRLSCAASGFTVSSNYMSWVRQAPGKGLEWVSVIYSGGSTYYADSVKGRFTISRDNSKNTLYLQMNSLRAEDTAVYYCARDLYYYGMDVWGQGTTVTVSS
VL: DIQLTQSPSFLSASVGDRVTITCRASQGISSYLAWYQQKPGKAPKLLIYAASTLQSGVPSRFSGSGSGTEFTLTISSLQPEDFATYYCQQLNSYPTFGQGTKVEIK
B4: AB-009613 (antibody, V domains shown)
VH: B3 VH with T7S, L99Y, Y100G, Y101D, Y102F, G103Y, M104F, V106Y, T112L
VL: not shown
B5: AB-009271 (antibody, V domains shown)
VH: B3 VH with T7S, T28I, L99Y, Y100G, Y101D, Y102F, G103Y, M104F, V106Y, T112L
VL: EIVMTQSPATLSVSPGERATLSCRASQSVSSNLAWYQQKPGQAPRLLIYGASTRATGIPARFSGSGSGTEFTLTISSLQSEDFAVYYCQQYYNWPRTFGQGTKVEIK
B6: AB-009760 (antibody, V domains shown)
VH: EVQLVQSGAEVKKPGESLKISCKGSGYSFTSYWIGWVRQMPGKGLEWMGIIYPGDSDTRYSPSFQGQVTISADKSISTAYLQWSSLKASDTAMYYCARSRSSDYFDYWGQGTLVTVSS
VL: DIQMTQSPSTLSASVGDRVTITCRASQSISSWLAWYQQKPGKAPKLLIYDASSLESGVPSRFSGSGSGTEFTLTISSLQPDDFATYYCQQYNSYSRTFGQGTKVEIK
B7: AB-009346 (antibody, V domains shown)
VH: EVQLVESGGGVVRPGGSLRLSCAASGFTFDDYGMSWVRQAPGKGLEWVSGINWNGGSTGYADSVKGRFTISRDNAKNSLYLQMNSLRAEDTALYYCARWPLLGISGYYHYYMDVWGKGTTVTVSS
VL: QSALTQPRSVSGSPGQSVTISCTGTSSDVGGYNYVSWYQQHPGKAPKLMIYDVSKRPSGVPDRFSGSKSGNTASLTISGLQAEDEADYYCCSYAGSYTLLFGGGTKLIVL
B8: AB-009734 (antibody, V domains shown)
VH: QVHLVQSGAEVKTPGASVRVSCKASGYTFTSHYMHWVRQAPGQGLEWMGLINPSGSGTAYPQHFQGRVTMTRDTSTTTDYMDLSSLRSEDTAMYFCARMERSGAFDLWGQGTMVTVSS
VL: EIVLTQSPGTLSLSPGERATLSCRASQTISSRYLAWYYQKPGQAPRLLIQGSSIRATGIPDRFSGSGSGTDFTLTISRLEPEDFAVYYCQHYGSSPPMYTFGQGTKLEIK
B9: AB-009615 (antibody, V domains shown)
VH: QVQLVESGGGVVQPGRSLRLSCAASGFTFSSYGMHWVRQAPGKGLEWVAVIWYDGSNKYYADSVKGRFTISRDNSKNTLYLQMNSLRAEDTAVYYCAKVGSPYCSGGSCYSGYFDYWGQGTLVTVSS
VL: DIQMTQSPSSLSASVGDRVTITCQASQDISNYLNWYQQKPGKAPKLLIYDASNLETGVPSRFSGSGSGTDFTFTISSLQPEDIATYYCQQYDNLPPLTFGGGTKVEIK
B10: AB-009661 (antibody, V domains shown)
VH: QVQLVESGGGVVQPGRSLRLSCAASGFTFSSYGMHWVRQAPGKGLEWVAVISYDGSNKYYADSVKGRFTISRDNSKNTLYLQMNSLRAEDTAVYYCAKDYGDYGGMDVWGQGTTVTVSS
VL: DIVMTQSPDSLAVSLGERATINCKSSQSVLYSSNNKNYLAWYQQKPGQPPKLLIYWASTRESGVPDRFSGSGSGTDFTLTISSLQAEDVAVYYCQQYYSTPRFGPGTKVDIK
B11: AB-009620 (antibody, V domains shown)
VH: QITLKESGPTLVKPTQTLTLTCTFSGFSLSTSGVGVGWIRQPPGKALEWLALIYWDDDKRYSPSLKSRLTITKDTSKNQVVLTMTNMDPVDTATYYCAHHEVATVFDYWGQGTLVTVSS
VL: QSALTQPASVSGSPGQSITISCTGTSSDVGAYNYVSWYQQHPGKAPKLMIYEVSNRPSGVSNRFSGSKSGNTASLTISGLQAEDEADYYCSSYTSSSTVFGGGTKLTVL
B12: AB-009769 (antibody, V domains shown)
VH: EVQLVESGGGLVQPGGSLRLSCAASGFTFSSYWMSWVRQAPGKGLEWVANIKQDGSEKYYVDSVKGRFTISRDNAKNSLYLQMNSLRAEDTAVYYCARSPEVLWFGDPVLDNWFDPWGQGTLVTVSS
VL: SYELTQPPSVSVSPGQTARITCSGDALPKQYAYWYQQKPGQAPVLVIYKDSERPSGIPERFSGSSSGTTVTLTISGVQAEDEADYYCQSADSSGTYPVVFGGGTKLTVL
B13: AB-009614 (antibody, V domains shown)
VH: QVQLVESGGGVVQPGRSLRLSCAASGFTFSSYGMHWVRQAPGKGLEWVAVISYDGSNKYYADSVKGRFTISRDNSKNTLYLQMNSLRAEDTAVYYCAKDQKYYDILTGYYRSTYYYYYYGMDVWGQGTTVTVSS
VL: not shown
B14: AB-009270 (antibody, V domains shown)
VH: QMQLVQSGPEVKKPGTSVKVSCKASGFTFTSSAMQWVRQARGQRLEWIGWIVVGSGNTNYAQKFQERVTITRDMSTSTAYMELSSLRSEDTAVYYCAVNYCSSTSCYDAFDIWGQGTMVTVSS
VL: not shown
B15: AB-010021 (antibody, V domains shown)
VH: B14 VH with M34V, V98A, N99V, S103G, T104G, Y107L
VL: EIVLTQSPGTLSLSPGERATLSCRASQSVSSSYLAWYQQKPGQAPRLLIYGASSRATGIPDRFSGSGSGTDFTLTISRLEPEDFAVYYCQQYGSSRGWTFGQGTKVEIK
notes: also called AB-0010021
B16: AB-010020 (antibody, V domains shown)
VH: B14 VH with M34V, V98A, N99P, Y100A, A109G
VL: not shown

Biological target: SARS-CoV-2 spike receptor-binding domain (RBD) (SARS-CoV-2, UniProt P0DTC2 319-541)
Assay: not given

With B1 the Kd was 9.8 nM.

Work on B1 yielded a kon of 108000 M⁻¹ s⁻¹.

Biological target: SARS-CoV-2 "Alpha" UK B.1.1.7 full-length Spike protein on pseudovirus (SARS-CoV-2, UniProt P0DTC2 14-1273)
Assay: cell-based or functional assay

Going from B2 to B3, the “Pseudovirus Neturalization” value rises from 2.84 µg/mL to > 50 µg/mL.

Compared with B4, B5 is 26-fold lower in “Pseudovirus Neturalization” value: 7.23 µg/mL for the first, 0.275 µg/mL for the second.

First: B6
Second: B7
The “Pseudovirus Neturalization” value of the first is 160-fold higher: 17.7 µg/mL for the first, 0.114 µg/mL for the second.

B8 and B9 cannot be ordered by “Pseudovirus Neturalization” value: > 50 µg/mL for the first, > 50 µg/mL for the second.

Going from B10 to B11, the “Pseudovirus Neturalization” value falls from > 50 µg/mL to 0.257 µg/mL.

B12 and B13 cannot be ordered by “Pseudovirus Neturalization” value: > 50 µg/mL for the first, > 50 µg/mL for the second.

Going from B14 to B15, the “Pseudovirus Neturalization” value rises from 0.117 µg/mL to 2.69 µg/mL (23-fold).

With B16 the “Pseudovirus Neturalization” value was 0.013 µg/mL.

Biological target: SARS-CoV-2 "Beta" SA B.1.351 full-length Spike protein on pseudovirus (SARS-CoV-2, UniProt P0DTC2 14-1273)
Assay: cell-based or functional assay

B2 and B3 cannot be ordered by “Pseudovirus Neturalization” value: > 50 µg/mL for the first, > 50 µg/mL for the second.

B4 and B5 cannot be ordered by “Pseudovirus Neturalization” value: > 50 µg/mL for the first, > 50 µg/mL for the second.

B6 and B7 cannot be ordered by “Pseudovirus Neturalization” value: > 50 µg/mL for the first, > 50 µg/mL for the second.

B8 and B9 cannot be ordered by “Pseudovirus Neturalization” value: > 50 µg/mL for the first, > 50 µg/mL for the second.

Compared with B10, B11 is lower in “Pseudovirus Neturalization” value: > 50 µg/mL for the first, 0.563 µg/mL for the second.

B12 and B13 cannot be ordered by “Pseudovirus Neturalization” value: > 50 µg/mL for the first, > 50 µg/mL for the second.

First: B14
Second: B15
The “Pseudovirus Neturalization” value of the first is 49-fold lower: 0.169 µg/mL for the first, 8.27 µg/mL for the second.

In the case of B16, the “Pseudovirus Neturalization” value is reported as 0.018 µg/mL.

Biological target: SARS-CoV-2 "Gamma" Brazil P.1.B.1.1.28 full-length Spike protein on pseudovirus (SARS-CoV-2, UniProt P0DTC2 14-1273)
Assay: cell-based or functional assay

B2 and B3 cannot be ordered by “Pseudovirus Neturalization” value: > 50 µg/mL for the first, > 50 µg/mL for the second.

B4 and B5 cannot be ordered by “Pseudovirus Neturalization” value: > 50 µg/mL for the first, > 50 µg/mL for the second.

First: B6
Second: B7
The “Pseudovirus Neturalization” value of the first is lower: 19.2 µg/mL for the first, > 50 µg/mL for the second.

Compared with B8, B9 is higher in “Pseudovirus Neturalization” value: 40.6 µg/mL for the first, > 50 µg/mL for the second.

Going from B10 to B11, the “Pseudovirus Neturalization” value falls from > 50 µg/mL to 0.327 µg/mL.

B12 and B13 cannot be ordered by “Pseudovirus Neturalization” value: > 50 µg/mL for the first, > 50 µg/mL for the second.

Compared with B14, B15 is 34-fold higher in “Pseudovirus Neturalization” value: 0.158 µg/mL for the first, 5.39 µg/mL for the second.

With B16 the “Pseudovirus Neturalization” value was 0.0114 µg/mL.

Biological target: SARS-CoV-2 "Delta" B.1.617.2 full-length Spike protein on pseudovirus (SARS-CoV-2, UniProt P0DTC2 14-1273)
Assay: cell-based or functional assay

Compared with B2, B3 is lower in “Pseudovirus Neturalization” value: > 50 µg/mL for the first, 0.032 µg/mL for the second.

Compared with B4, B5 is 8.4-fold lower in “Pseudovirus Neturalization” value: 0.101 µg/mL for the first, 0.012 µg/mL for the second.

B6 and B7 cannot be ordered by “Pseudovirus Neturalization” value: > 50 µg/mL for the first, > 50 µg/mL for the second.

B8 and B9 cannot be ordered by “Pseudovirus Neturalization” value: > 50 µg/mL for the first, > 50 µg/mL for the second.

First: B10
Second: B11
The “Pseudovirus Neturalization” value of the first is higher: > 50 µg/mL for the first, 0.519 µg/mL for the second.

Compared with B12, B13 is lower in “Pseudovirus Neturalization” value: > 50 µg/mL for the first, 31.3 µg/mL for the second.

Compared with B14, B15 is 19-fold higher in “Pseudovirus Neturalization” value: 0.03 µg/mL for the first, 0.574 µg/mL for the second.

B16 was tested, and the “Pseudovirus Neturalization” value was 0.003 µg/mL.

Biological target: SARS-CoV-2 "Delta-plus" B.1.617.2.1 full-length Spike protein on pseudovirus (SARS-CoV-2, UniProt P0DTC2 14-1273)
Assay: cell-based or functional assay

Compared with B2, B3 is lower in “Pseudovirus Neturalization” value: > 50 µg/mL for the first, 2.29 µg/mL for the second.

B4 and B5 cannot be ordered by “Pseudovirus Neturalization” value: > 50 µg/mL for the first, > 50 µg/mL for the second.

First: B6
Second: B7
The “Pseudovirus Neturalization” value of the first is lower: 46.2 µg/mL for the first, > 50 µg/mL for the second.

B8 and B9 cannot be ordered by “Pseudovirus Neturalization” value: > 50 µg/mL for the first, > 50 µg/mL for the second.

Going from B10 to B11, the “Pseudovirus Neturalization” value falls from > 50 µg/mL to 0.809 µg/mL.

B12 and B13 cannot be ordered by “Pseudovirus Neturalization” value: > 50 µg/mL for the first, > 50 µg/mL for the second.

Going from B14 to B15, the “Pseudovirus Neturalization” value rises from 0.012 µg/mL to 0.078 µg/mL (6.5-fold).

In the case of B16, the “Pseudovirus Neturalization” value is reported as 0.001 µg/mL.

Biological target: SARS-CoV-2 "Epsilon" B.1.427/9 full-length Spike protein on pseudovirus (SARS-CoV-2, UniProt P0DTC2 14-1273)
Assay: cell-based or functional assay

Compared with B2, B3 is lower in “Pseudovirus Neturalization” value: > 50 µg/mL for the first, 0.041 µg/mL for the second.

First: B4
Second: B5
The “Pseudovirus Neturalization” value of the first is 41-fold higher: 1.16 µg/mL for the first, 0.028 µg/mL for the second.

First: B6
Second: B7
The “Pseudovirus Neturalization” value of the first is 2.4-fold lower: 14.1 µg/mL for the first, 33.6 µg/mL for the second.

First: B8
Second: B9
The “Pseudovirus Neturalization” value of the first is higher: > 50 µg/mL for the first, 38.4 µg/mL for the second.

Going from B10 to B11, the “Pseudovirus Neturalization” value falls from > 50 µg/mL to 0.974 µg/mL.

B12 and B13 cannot be ordered by “Pseudovirus Neturalization” value: > 50 µg/mL for the first, > 50 µg/mL for the second.

First: B14
Second: B15
The “Pseudovirus Neturalization” value of the first is 20-fold lower: 0.032 µg/mL for the first, 0.629 µg/mL for the second.

With B16 the “Pseudovirus Neturalization” value was 0.003 µg/mL.
